This series concerns the molecule itself. Kind of series: SEC.

We go through one protein from paper PMC7092807 (Biochemical and Biophysical Research Communications, 2004).

B1: SARS-CoV soluble S ectodomain (Se) (domain or fragment)
chain: not shown
One may read the stoichiometry N as the number of molecules, sites or subunits per partner or assembly. Take B1: the “stoichiometry N” value turned out to be 3.
